US20090156476A1 (NASCACELL TECHNOLOGIES, published 2009)
Ends that are not written are not given here.

T1: TPOR/4Rα hybrid receptor (fusion of the hTPOR extracellular domain and the intracellular 4Rα domain from … (human, UniProt P40238 26-491; P24394 257-825, limits assumed)
T1 sequence (looked up): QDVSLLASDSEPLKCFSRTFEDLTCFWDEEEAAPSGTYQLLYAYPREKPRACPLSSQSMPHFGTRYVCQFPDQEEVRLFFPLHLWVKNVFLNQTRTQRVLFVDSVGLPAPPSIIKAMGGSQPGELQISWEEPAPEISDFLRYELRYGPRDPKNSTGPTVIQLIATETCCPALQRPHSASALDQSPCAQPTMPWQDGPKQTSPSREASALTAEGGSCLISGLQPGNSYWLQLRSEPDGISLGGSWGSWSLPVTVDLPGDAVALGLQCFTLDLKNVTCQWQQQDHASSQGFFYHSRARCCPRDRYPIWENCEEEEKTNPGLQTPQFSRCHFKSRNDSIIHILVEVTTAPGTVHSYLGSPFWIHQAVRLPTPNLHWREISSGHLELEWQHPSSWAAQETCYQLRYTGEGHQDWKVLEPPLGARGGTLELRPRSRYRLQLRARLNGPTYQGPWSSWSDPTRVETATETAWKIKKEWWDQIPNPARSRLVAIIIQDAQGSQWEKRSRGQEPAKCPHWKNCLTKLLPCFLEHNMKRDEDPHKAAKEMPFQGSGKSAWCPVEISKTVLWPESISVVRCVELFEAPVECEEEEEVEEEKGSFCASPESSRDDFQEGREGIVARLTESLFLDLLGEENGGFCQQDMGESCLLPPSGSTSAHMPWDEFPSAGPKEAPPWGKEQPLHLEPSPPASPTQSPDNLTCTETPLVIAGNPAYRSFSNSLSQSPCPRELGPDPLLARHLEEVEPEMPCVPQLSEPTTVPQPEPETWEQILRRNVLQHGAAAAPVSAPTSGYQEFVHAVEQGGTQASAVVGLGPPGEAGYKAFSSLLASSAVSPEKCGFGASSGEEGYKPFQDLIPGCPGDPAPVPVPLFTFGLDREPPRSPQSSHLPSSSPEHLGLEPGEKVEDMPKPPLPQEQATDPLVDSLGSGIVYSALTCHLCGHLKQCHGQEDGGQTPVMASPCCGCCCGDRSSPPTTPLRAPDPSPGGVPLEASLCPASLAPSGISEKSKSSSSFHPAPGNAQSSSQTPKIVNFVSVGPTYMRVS

B1: dimeric SE-ET-TP-030 (DSS-crosslinked dimer) (designed binder)
chain: GCIEGPTLRQWLAACKQDSDCLAGCVCGPNGFCGS
modifications: cysteine pairing not given here; also: DSS-crosslinked dimer, crosslink site not given here
B2: dimeric SE-ET-TP-020 (DSS-crosslinked dimer) (designed binder)
chain: GCIEGPTLRQWLAARACKQDSDCLAGCVCGPNGFCGS
modifications: cysteine pairing not given here; also: DSS-crosslinked dimer, crosslink site not given here
B3: dimeric SE-AG-TP-040 (DSS-crosslinked dimer) (designed binder)
chain: GCVRLHESCLGQQVPCCDPAATCGGTALAIEGPTLRQWLAARACKGS
modifications: cysteine pairing not given here; also: dimer crosslinked by DSS, site of crosslink not given here
B4: dimeric SE-AG-TP-050 (DSS-crosslinked dimer) (designed binder)
chain: GCVRLHESCLGQQVPCCDPAATCGGTCLAIEGPTLRQWLCARACKGS
modifications: cysteine pairing not given here; also: dimer crosslinked by DSS, site of crosslink not given here

The binders below were run against T1, TPOR/4Rα hybrid receptor (fusion of the …) (assay: cell-based or functional assay).
For B1, the “Agonist EC50[nM] (Ba/F3 luciferase reporter assay)” value (“Agonist EC50[nM]” for short) was 2.5 nM.
B2 was tested, and the “Agonist EC50[nM]” value was 1.4 nM.
With B3 the “Agonist EC50[nM]” value was roughly 2 nM.
With B4 the “Agonist EC50[nM]” value was 2.5 nM.
